Source: article PMC7139218, “Structural Basis for Rab8a Recruitment of RILPL2 via LRRK2 Phosphorylation of Switch 2” (Structure(London, England:1993), 2020)
Each block holds one molecule with its values, some of them ahead of it. No end group written: not given here.

Key:
[1] = molecular target: RILPL2 (Mus musculus) (UniProt Q99LE1); details: cited from earlier work
[2] = molecular target: T1, His6-tagged RILPL2 (full length, 1-211) (Homo sapiens (Human), UniProt Q969X0); assay: Ni-agarose pull-down (SDS-PAGE, Coomassie)
T1 chain: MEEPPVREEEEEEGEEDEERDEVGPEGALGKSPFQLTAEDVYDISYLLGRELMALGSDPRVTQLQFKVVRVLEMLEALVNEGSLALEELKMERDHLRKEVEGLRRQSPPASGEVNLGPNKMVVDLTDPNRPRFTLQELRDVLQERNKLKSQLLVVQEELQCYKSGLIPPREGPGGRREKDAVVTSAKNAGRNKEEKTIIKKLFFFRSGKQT

[3] = molecular target: the molecule itself; assay: crystal structure; pRab8(Q67L):His6-RL2 complex, 1:1 molar ratio of protein:peptide, 12 mg/mL; 100 mM HEPES pH 7, 10% PEG4,000, 10% 2-propanol; 1.8 Å
[4] = molecular target: T72 phosphorylated Rab8a(GTP), residues 1-181, Q67L (UniProt P61006); assay: ITC; His6-RILPL2 129-165 (400-600 μM) injected into Rab8a or pRab8a 1-181 (40-60 μM); 10 mM Tris-HCl, 300 mM NaCl, 5 mM MgCl2, 20 mM imidazole, 1 mM DTT; triplicate
[5] = molecular target: the molecule itself; assay: SEC-MALS; static light scattering coupled to gel filtration, Superdex 200 (10/300); full-length RILPL2 with uncleaved polyhistidine tag, 500 μL at 1 mg/mL

Chain of RILPL2 (Mus musculus) (Q99LE1 whole entry): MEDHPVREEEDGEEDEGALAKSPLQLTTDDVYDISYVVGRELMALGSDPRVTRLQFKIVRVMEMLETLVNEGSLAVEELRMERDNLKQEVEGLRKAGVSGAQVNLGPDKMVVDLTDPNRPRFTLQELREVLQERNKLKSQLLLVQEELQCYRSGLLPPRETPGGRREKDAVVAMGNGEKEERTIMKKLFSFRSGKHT
Chain of T72 phosphorylated Rab8a(GTP), residues 1-181, Q67L (P61006 1-181 Q67L): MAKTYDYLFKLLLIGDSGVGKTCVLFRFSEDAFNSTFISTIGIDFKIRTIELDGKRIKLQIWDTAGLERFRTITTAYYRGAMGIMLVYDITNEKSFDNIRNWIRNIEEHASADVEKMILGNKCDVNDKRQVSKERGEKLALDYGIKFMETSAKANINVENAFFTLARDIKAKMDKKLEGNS

Molecule: Myosin Va (from UniProt Q99104)
Kd [1]: 0.3 µM

binding result [2]: binds
B1: globular tail domain (GTD) of myosin Va (1462-1853) (protein)
chain: VNIPRKEKDFQGMLEYKREDEQKLVKNLILELKPRGVAVNLIPGLPAYILFMCVRHADYLNDDQKVRSLLTSTINSIKKVLKKRGDDFETVSFWLSNTCRFLHCLKQYSGEEGFMKHNTSRQNEHCLTNFDLAEYRQVLSDLAIQIYQQLVRVLENILQPMIVSGMLEHETIQGVSGVKPTGLRKRTSSIADEGTYTLDSILRQLNSFHSVMCQHGMDPELIKQVVKQMFYIVGAITLNNLLLRKDMCSWSKGMQIRYNVSQLEEWLRDKNLMNSGAKETLEPLIQAAQLLQVKKKTDDDAEAICSMCNALTTAQIVKVLNLYTPVNEFEERVSVSFIRTIQMRLRDRKDSPQLLMDAKHIFPVTFPFNPSSLALETIQIPASLGLGFIARV

Kd [4]: 3.3 µM
B2: His6-RILPL2 residues 129-165 (phospho-Rab binding domain, minimal RH2 motif) (peptide, UniProt Q969X0 129-165, looked up)
chain: His6-NRPRFTLQELRDVLQERNKLKSQLLVVQEELQCYKSG
notes: Parallel α-helical dimer in the crystal; also called His6-RL2; source: synthetic peptide (Genscript); not shown: His6, N-terminal, kept
stoichiometry N [3]: 2

B3: His6-tagged RILPL2 (full length, 1-211) (natural protein, human, UniProt Q969X0 1-211, looked up)
chain: T1 chain
notes: RILPL2, human, full length (1-211), cDNA in pET15b; Dimer in solution by static light scattering coupled to gel filtration; also called full-length RILPL2; source: E. coli, purified (Ni-agarose, gel filtration), polyhistidine tag not removed
stoichiometry N [5]: 2
